# B1: CPEB3 Ribozyme (parent)
# chain: GGGGGCCACAGCAGAAGCGUUCACGUCGCGGCCCCUGUCAGAUUCUGGUGAAUCUGCGAAUUCUGCUGU
# Variants of: B1
# Test: self-cleavage, relative activity (ratio to wild type); higher = more cleavage; co-transcriptional
row,Variant,self-cleavage
1,A15C G31U,0.241
2,A13G A51G,0.843
3,A13G A51U,0.905
4,G14A U69C,1
5,G14A U69A,0.875
6,G14A U69G,0.934
7,G14A U38C,0.501
8,G14A U38G,0.152
9,A13U C63U,0.648
10,G14U U46G,0.871
11,G14U C24A,0.249
12,A15C C34U,0.909
13,A15C C34G,0.131
14,A13U U20A,0.0602
15,A15C C27A,0.091
16,A13C U55G,0.322
17,A13C U55A,0.315
18,A15C A23G,0.659
19,A15C A23C,0.835
20,A15C A23U,0.917
21,G14U G28C,0.159
22,G14U G28A,0.213
23,G14A C24G,0.148
24,A13G U49C,1.01

row,Variant,self-cleavage
1,A13G U49G,0.989
2,G14U C27G,0.154
3,G14U C27A,0.172
4,G14C C32U,0.716
5,G14A A52G,0.805
6,A15C G25U,0.192
7,A15C G25C,0.186
8,A13G C35A,0.167
9,A13G C35U,0.952
10,G14C A60U,0.249
11,G14C A60C,0.21
12,A13U U26A,0.626
13,A13U U26G,0.287
14,A13U U26C,0.422
15,G14A G19U,0.091
16,G14C G17U,0.138
17,G14C U43A,0.204
18,G14C U43C,0.399
19,A13C U38A,0.679
20,A13C U38C,0.668
21,A13C U38G,0.0833
22,G14U U43A,0.321
23,A13U U36C,0.647
24,G14A A42U,0.329

row,Variant,self-cleavage
1,G14A A42G,0.372
2,A13G U44A,0.877
3,A13G U44C,0.824
4,G14U G56A,0.539
5,A13G A23U,0.997
6,A13G A23G,0.804
7,A13G G41U,0.583
8,A13G G41C,0.547
9,A13C U61A,0.459
10,A13C U61G,0.406
11,A13U U53C,0.357
12,A15C G30C,0.189
13,A13G U61A,0.834
14,A15C C29A,0.297
15,G14U C32G,0.237
16,G14A U20C,0.181
17,G14C C24A,0.136
18,G14C C24G,0.131
19,A13G A15U,0.547
20,A13G G47C,0.997
21,A13U C35A,0.197
22,A13U C35U,0.826
23,G14A U53A,0.362
24,G14A U53G,0.344

row,Variant,self-cleavage
1,A15C C24G,0.269
2,G14C U55G,0.185
3,A13C G68U,0.892
4,G14C C35A,0.173
5,G14U C66U,0.436
6,G14C U53C,0.19
7,G14C U53A,0.326
8,A13G A40C,0.306
9,A13U C18A,0.132
10,G14U U36C,0.535
11,G14U U36G,0.142
12,A15C C57A,0.282
13,A15C C57G,0.269
14,A13G U43A,0.617
15,G14C C54A,0.264
16,G14C G56A,0.31
17,A13U U55C,0.403
18,A13C U36A,0.175
19,A13C U36G,0.201
20,A13G G31C,0.241
21,A13U C32U,0.862
22,G14U A52G,0.851
23,A13U U43G,0.221
24,G14A U46A,0.85

row,Variant,self-cleavage
1,A13C G65U,0.41
2,G14C A40U,0.199
3,G14C A59G,0.62
4,A13G U67G,0.897
5,A13G G19C,0.13
6,A13C U20G,0.089
7,G14A U55A,0.289
8,A15C C35U,0.686
9,A15C A51G,0.897
10,A15C A51U,0.826
11,A13C U69C,1.06
12,A13C U69A,0.915
13,A13G C39A,0.602
14,A13C U43C,0.685
15,A13G C24G,0.368
16,A15C C63A,0.921
17,A15C C63U,0.937
18,A13U C27G,0.155
19,A13U C27U,0.134
20,G14A C29A,0.23
21,G14A C29G,0.167
22,A15C C33U,0.911
23,A15C C22G,0.0813
24,A15C C22A,0.148

row,Variant,self-cleavage
1,G14A C35G,0.236
2,G14A C35A,0.202
3,A15C A40U,0.451
4,A13G G68C,0.924
5,A13G G68U,0.95
6,G14A G30U,0.21
7,G14A G30C,0.281
8,G14U U20C,0.219
9,A15C G17C,0.131
10,A13U A60C,0.318
11,G14C U49C,0.55
12,A13U C54G,0.419
13,G14A C33G,0.414
14,G14A C33U,0.747
15,G14U C39A,0.223
16,A13G C22U,0.207
17,A13G C22A,0.106
18,A13G U46C,0.927
19,G14U A16G,0.504
20,G14U A60U,0.331
21,G14U A60C,0.269
22,A13G C33A,0.942
23,A13G C33U,0.946
24,G14U A51U,0.739

row,Variant,self-cleavage
1,G14C G47C,0.794
2,A13U G48A,0.911
3,G14A G17A,0.134
4,G14A G17C,0.175
5,A13U G14C,0.351
6,G14C U61C,0.241
7,A13U G56U,0.348
8,G14A G28U,0.112
9,G14A G28A,0.147
10,G14U C22G,0.172
11,A15C G19A,0.185
12,A15C G19U,0.164
13,A15C G19C,0.214
14,A15C C66G,0.351
15,G14A C34U,0.751
16,G14U U21G,0.147
17,A15C G47A,0.889
18,A13G U36G,0.227
19,A13G G17C,0.052
20,G14U C35A,0.257
21,A15C C39A,0.359
22,A13U G37A,0.184
23,G14U A40C,0.17
